Publication PMC3386944

Target: HER3 receptor (human (endogenous in AU565)) (UniProt P21860)
Chain of UniProt P21860 (P21860 20-1342): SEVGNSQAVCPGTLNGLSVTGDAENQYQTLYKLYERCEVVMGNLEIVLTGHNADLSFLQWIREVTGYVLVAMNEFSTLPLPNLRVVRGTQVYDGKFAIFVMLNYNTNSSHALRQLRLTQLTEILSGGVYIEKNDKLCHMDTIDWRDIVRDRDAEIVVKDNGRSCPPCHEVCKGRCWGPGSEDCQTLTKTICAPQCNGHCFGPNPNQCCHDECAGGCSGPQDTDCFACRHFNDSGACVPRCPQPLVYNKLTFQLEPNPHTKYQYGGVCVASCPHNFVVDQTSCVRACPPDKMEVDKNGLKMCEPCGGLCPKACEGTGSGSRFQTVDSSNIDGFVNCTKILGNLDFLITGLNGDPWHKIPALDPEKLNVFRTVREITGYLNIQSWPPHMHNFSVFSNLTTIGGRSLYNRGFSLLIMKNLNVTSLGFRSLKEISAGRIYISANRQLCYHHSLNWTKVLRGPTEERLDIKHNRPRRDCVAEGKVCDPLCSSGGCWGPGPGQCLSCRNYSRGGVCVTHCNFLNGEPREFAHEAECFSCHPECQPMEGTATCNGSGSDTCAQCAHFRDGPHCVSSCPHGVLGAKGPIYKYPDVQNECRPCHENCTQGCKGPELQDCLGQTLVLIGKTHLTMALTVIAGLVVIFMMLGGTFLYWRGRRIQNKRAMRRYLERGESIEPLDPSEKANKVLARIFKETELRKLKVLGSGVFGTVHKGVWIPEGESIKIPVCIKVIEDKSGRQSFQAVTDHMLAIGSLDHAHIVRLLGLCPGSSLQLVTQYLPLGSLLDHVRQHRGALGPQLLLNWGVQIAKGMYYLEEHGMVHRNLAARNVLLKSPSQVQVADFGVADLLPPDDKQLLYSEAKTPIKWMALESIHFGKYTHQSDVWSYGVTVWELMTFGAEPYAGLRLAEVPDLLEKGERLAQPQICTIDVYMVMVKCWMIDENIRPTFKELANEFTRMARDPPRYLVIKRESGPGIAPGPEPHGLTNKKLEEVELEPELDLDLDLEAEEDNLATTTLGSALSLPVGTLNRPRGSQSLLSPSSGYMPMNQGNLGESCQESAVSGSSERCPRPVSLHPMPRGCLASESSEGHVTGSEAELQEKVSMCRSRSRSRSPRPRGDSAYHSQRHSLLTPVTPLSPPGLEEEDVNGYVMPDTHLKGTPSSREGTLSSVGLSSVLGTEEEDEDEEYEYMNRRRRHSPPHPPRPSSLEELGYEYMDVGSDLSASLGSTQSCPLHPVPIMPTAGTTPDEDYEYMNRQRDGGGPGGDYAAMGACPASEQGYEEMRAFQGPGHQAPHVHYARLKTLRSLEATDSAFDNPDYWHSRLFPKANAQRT

- IC50 of Affibody molecule Z05416 (no letters) for inhibition of growth of MCF-7 cells induced by 40 pM HRG (EGF domain construct), 5 days, CCK-8: 19 nM
- IC50 of Affibody molecule Z05416 (no letters) for inhibition of growth of SKBR-3 cells induced by 40 pM HRG (EGF domain construct), 5 days, CCK-8: 73 nM
- IC50 of Affibody molecule Z05417 (no letters) for inhibition of growth of MCF-7 cells induced by 40 pM HRG (EGF domain construct), 5 days, CCK-8: 15 nM
- IC50 of Affibody molecule Z05417 (no letters) for inhibition of growth of SKBR-3 cells induced by 40 pM HRG (EGF domain construct), 5 days, CCK-8: 65 nM
Substance: heregulin (HRG, NRG1-β1/HRG1-β1 ECD domain), biotinylated (ligand)
